Measurements from US20060121510.

Tested on: calmodulin (3′,5′-cyclic nucleotide phosphodiesterase activator, Sigma)

**Q.** How did the “hydrolysis of 3′,5′-cyclic AMP to 5′-AMP during a 40 min preincubation (enzyme activity)” value turn out when “3′,5′-cyclic nucleotide phosphodiesterase (activator deficient from bovine brain, Sigma)” was run?
**A.** more than 90% is destroyed in a similar reaction containing calmodulin
